# Starred links: 1 amine or outer side, 2 acyl side, 3 side chain; linkers in the order of their positions; H or OH if unused. Non-standard residues stand in square brackets, D forms with d. Groups on a side chain read outwards from the residue. No end group written: not given here. *: point of attachment. C20 diacid = O=C(O)CCCCCCCCCCCCCCCCCCC(=O)*; C18 diacid = O=C(O)CCCCCCCCCCCCCCCCC(=O)*; γGlu = O=C(O)[C@H](CCC(=O)[*:2])N[*:1]; αMeF = C[C@](N)(Cc1ccccc1)C(=O)O; AEEA = NCCOCCOCC(=O)O; Aib = CC(C)(N)C(=O)O
# Key:
# [1] = target: human GLP-1 receptor (hGLP-1R) (human, UniProt P43220 24-463); experiment: cell-based or functional assay
# [2] = target: human glucagon receptor (hGCGR) (human, UniProt P47871 26-477); experiment: cell-based or functional assay
# human glucagon receptor (hGCGR), sequence (P47871 26-477): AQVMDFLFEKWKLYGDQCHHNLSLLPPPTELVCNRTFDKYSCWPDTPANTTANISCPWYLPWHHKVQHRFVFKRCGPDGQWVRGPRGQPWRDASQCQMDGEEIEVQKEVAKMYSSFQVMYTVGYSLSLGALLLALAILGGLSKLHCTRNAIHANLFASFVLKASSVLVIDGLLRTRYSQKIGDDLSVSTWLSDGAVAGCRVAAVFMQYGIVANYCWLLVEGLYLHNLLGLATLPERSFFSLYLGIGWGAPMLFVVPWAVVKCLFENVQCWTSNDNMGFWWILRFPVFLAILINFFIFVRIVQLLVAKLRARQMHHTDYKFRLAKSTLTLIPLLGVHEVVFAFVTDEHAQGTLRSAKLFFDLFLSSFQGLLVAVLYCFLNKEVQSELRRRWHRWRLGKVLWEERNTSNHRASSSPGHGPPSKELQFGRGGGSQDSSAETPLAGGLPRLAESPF
Binder,hGLP-1R EC50 (pM) [1],hGluc-R EC50 (pM) [2]
H[Aib]QGTFTSDVSK[αMeF]LDSK([γGlu-γGlu-AEEA-AEEA-γGlu-γGlu-C18 diacid])RAQDFVRWLLE[Aib]G-OH (N-terminus assumed; SMILES CC(C)C[C@H](NC(=O)[C@H](Cc1c[nH]c2ccccc12)NC(=O)[C@H](CCCNC(=N)N)NC(=O)[C@@H](NC(=O)[C@H](Cc1ccccc1)NC(=O)[C@H](CC(=O)O)NC(=O)[C@H](CCC(N)=O)NC(=O)[C@H](C)NC(=O)[C@H](CCCNC(=N)N)NC(=O)[C@H](CCCCNC(=O)CC[C@H](NC(=O)CC[C@H](NC(=O)COCCOCCNC(=O)COCCOCCNC(=O)CC[C@H](NC(=O)CC[C@H](NC(=O)CCCCCCCCCCCCCCCCC(=O)O)C(=O)O)C(=O)O)C(=O)O)C(=O)O)NC(=O)[C@H](CO)NC(=O)[C@H](CC(=O)O)NC(=O)[C@H](CC(C)C)NC(=O)[C@](C)(Cc1ccccc1)NC(=O)[C@H](CCCCN)NC(=O)[C@H](CO)NC(=O)[C@@H](NC(=O)[C@H](CC(=O)O)NC(=O)[C@H](CO)NC(=O)[C@@H](NC(=O)[C@H](Cc1ccccc1)NC(=O)[C@@H](NC(=O)CNC(=O)[C@H](CCC(N)=O)NC(=O)C(C)(C)NC(=O)[C@@H](N)Cc1c[nH]cn1)[C@@H](C)O)[C@@H](C)O)C(C)C)C(C)C)C(=O)N[C@@H](CC(C)C)C(=O)N[C@@H](CCC(=O)O)C(=O)NC(C)(C)C(=O)NCC(=O)O) [Peptide 138],104 pM,184 pM
H[Aib]QGTFTSDVSK[αMeF]LDSK([γGlu-γGlu-AEEA-AEEA-γGlu-γGlu-C20 diacid])RAQDFVRWLLE[Aib]G-OH [Peptide 139],630 pM,984 pM
H[Aib]QGTFTSDVSK[αMeF]LDSK([AEEA-AEEA-γGlu-C18 diacid])RAQDFVRWLASR-OH (N-terminus assumed; SMILES CC(C)C[C@H](NC(=O)[C@H](Cc1c[nH]c2ccccc12)NC(=O)[C@H](CCCNC(=N)N)NC(=O)[C@@H](NC(=O)[C@H](Cc1ccccc1)NC(=O)[C@H](CC(=O)O)NC(=O)[C@H](CCC(N)=O)NC(=O)[C@H](C)NC(=O)[C@H](CCCNC(=N)N)NC(=O)[C@H](CCCCNC(=O)COCCOCCNC(=O)COCCOCCNC(=O)CC[C@H](NC(=O)CCCCCCCCCCCCCCCCC(=O)O)C(=O)O)NC(=O)[C@H](CO)NC(=O)[C@H](CC(=O)O)NC(=O)[C@H](CC(C)C)NC(=O)[C@](C)(Cc1ccccc1)NC(=O)[C@H](CCCCN)NC(=O)[C@H](CO)NC(=O)[C@@H](NC(=O)[C@H](CC(=O)O)NC(=O)[C@H](CO)NC(=O)[C@@H](NC(=O)[C@H](Cc1ccccc1)NC(=O)[C@@H](NC(=O)CNC(=O)[C@H](CCC(N)=O)NC(=O)C(C)(C)NC(=O)[C@@H](N)Cc1c[nH]cn1)[C@@H](C)O)[C@@H](C)O)C(C)C)C(C)C)C(=O)N[C@@H](C)C(=O)N[C@@H](CO)C(=O)N[C@@H](CCCNC(=N)N)C(=O)O) [Peptide 146],24.6 pM,1630 pM
H[Aib]QGTFTSDVSK[αMeF]LDSK([AEEA-AEEA-γGlu-C18 diacid])RARDFVAWLLE[Aib]G-OH (N-terminus assumed; SMILES CC(C)C[C@H](NC(=O)[C@H](Cc1c[nH]c2ccccc12)NC(=O)[C@H](C)NC(=O)[C@@H](NC(=O)[C@H](Cc1ccccc1)NC(=O)[C@H](CC(=O)O)NC(=O)[C@H](CCCNC(=N)N)NC(=O)[C@H](C)NC(=O)[C@H](CCCNC(=N)N)NC(=O)[C@H](CCCCNC(=O)COCCOCCNC(=O)COCCOCCNC(=O)CC[C@H](NC(=O)CCCCCCCCCCCCCCCCC(=O)O)C(=O)O)NC(=O)[C@H](CO)NC(=O)[C@H](CC(=O)O)NC(=O)[C@H](CC(C)C)NC(=O)[C@](C)(Cc1ccccc1)NC(=O)[C@H](CCCCN)NC(=O)[C@H](CO)NC(=O)[C@@H](NC(=O)[C@H](CC(=O)O)NC(=O)[C@H](CO)NC(=O)[C@@H](NC(=O)[C@H](Cc1ccccc1)NC(=O)[C@@H](NC(=O)CNC(=O)[C@H](CCC(N)=O)NC(=O)C(C)(C)NC(=O)[C@@H](N)Cc1c[nH]cn1)[C@@H](C)O)[C@@H](C)O)C(C)C)C(C)C)C(=O)N[C@@H](CC(C)C)C(=O)N[C@@H](CCC(=O)O)C(=O)NC(C)(C)C(=O)NCC(=O)O) [Peptide 142],59.4 pM,108 pM
H[Aib]QGTFTSDVSK[αMeF]LDSK([γGlu-γGlu-AEEA-AEEA-γGlu-γGlu-C18 diacid])RARDFVRWLLE[Aib]G-OH (N-terminus assumed; SMILES CC(C)C[C@H](NC(=O)[C@H](Cc1c[nH]c2ccccc12)NC(=O)[C@H](CCCNC(=N)N)NC(=O)[C@@H](NC(=O)[C@H](Cc1ccccc1)NC(=O)[C@H](CC(=O)O)NC(=O)[C@H](CCCNC(=N)N)NC(=O)[C@H](C)NC(=O)[C@H](CCCNC(=N)N)NC(=O)[C@H](CCCCNC(=O)CC[C@H](NC(=O)CC[C@H](NC(=O)COCCOCCNC(=O)COCCOCCNC(=O)CC[C@H](NC(=O)CC[C@H](NC(=O)CCCCCCCCCCCCCCCCC(=O)O)C(=O)O)C(=O)O)C(=O)O)C(=O)O)NC(=O)[C@H](CO)NC(=O)[C@H](CC(=O)O)NC(=O)[C@H](CC(C)C)NC(=O)[C@](C)(Cc1ccccc1)NC(=O)[C@H](CCCCN)NC(=O)[C@H](CO)NC(=O)[C@@H](NC(=O)[C@H](CC(=O)O)NC(=O)[C@H](CO)NC(=O)[C@@H](NC(=O)[C@H](Cc1ccccc1)NC(=O)[C@@H](NC(=O)CNC(=O)[C@H](CCC(N)=O)NC(=O)C(C)(C)NC(=O)[C@@H](N)Cc1c[nH]cn1)[C@@H](C)O)[C@@H](C)O)C(C)C)C(C)C)C(=O)N[C@@H](CC(C)C)C(=O)N[C@@H](CCC(=O)O)C(=O)NC(C)(C)C(=O)NCC(=O)O) [Peptide 144],45.2 pM,702 pM
H[Aib]QGTFTSDVSK[αMeF]LDSK([AEEA-AEEA-γGlu-C18 diacid])RAQDFVAWLLE[Aib]G-OH (N-terminus assumed; SMILES CC(C)C[C@H](NC(=O)[C@H](Cc1c[nH]c2ccccc12)NC(=O)[C@H](C)NC(=O)[C@@H](NC(=O)[C@H](Cc1ccccc1)NC(=O)[C@H](CC(=O)O)NC(=O)[C@H](CCC(N)=O)NC(=O)[C@H](C)NC(=O)[C@H](CCCNC(=N)N)NC(=O)[C@H](CCCCNC(=O)COCCOCCNC(=O)COCCOCCNC(=O)CC[C@H](NC(=O)CCCCCCCCCCCCCCCCC(=O)O)C(=O)O)NC(=O)[C@H](CO)NC(=O)[C@H](CC(=O)O)NC(=O)[C@H](CC(C)C)NC(=O)[C@](C)(Cc1ccccc1)NC(=O)[C@H](CCCCN)NC(=O)[C@H](CO)NC(=O)[C@@H](NC(=O)[C@H](CC(=O)O)NC(=O)[C@H](CO)NC(=O)[C@@H](NC(=O)[C@H](Cc1ccccc1)NC(=O)[C@@H](NC(=O)CNC(=O)[C@H](CCC(N)=O)NC(=O)C(C)(C)NC(=O)[C@@H](N)Cc1c[nH]cn1)[C@@H](C)O)[C@@H](C)O)C(C)C)C(C)C)C(=O)N[C@@H](CC(C)C)C(=O)N[C@@H](CCC(=O)O)C(=O)NC(C)(C)C(=O)NCC(=O)O) [Peptide 141],264 pM,392 pM
H[Aib]QGTFTSDVSK[αMeF]LDSK([AEEA-AEEA-γGlu-C18 diacid])RARDFVQWLLE[Aib]G-OH (N-terminus assumed; SMILES CC(C)C[C@H](NC(=O)[C@H](Cc1c[nH]c2ccccc12)NC(=O)[C@H](CCC(N)=O)NC(=O)[C@@H](NC(=O)[C@H](Cc1ccccc1)NC(=O)[C@H](CC(=O)O)NC(=O)[C@H](CCCNC(=N)N)NC(=O)[C@H](C)NC(=O)[C@H](CCCNC(=N)N)NC(=O)[C@H](CCCCNC(=O)COCCOCCNC(=O)COCCOCCNC(=O)CC[C@H](NC(=O)CCCCCCCCCCCCCCCCC(=O)O)C(=O)O)NC(=O)[C@H](CO)NC(=O)[C@H](CC(=O)O)NC(=O)[C@H](CC(C)C)NC(=O)[C@](C)(Cc1ccccc1)NC(=O)[C@H](CCCCN)NC(=O)[C@H](CO)NC(=O)[C@@H](NC(=O)[C@H](CC(=O)O)NC(=O)[C@H](CO)NC(=O)[C@@H](NC(=O)[C@H](Cc1ccccc1)NC(=O)[C@@H](NC(=O)CNC(=O)[C@H](CCC(N)=O)NC(=O)C(C)(C)NC(=O)[C@@H](N)Cc1c[nH]cn1)[C@@H](C)O)[C@@H](C)O)C(C)C)C(C)C)C(=O)N[C@@H](CC(C)C)C(=O)N[C@@H](CCC(=O)O)C(=O)NC(C)(C)C(=O)NCC(=O)O) [Peptide 143],19.1 pM,32.6 pM
H[Aib]QGTFTSDVSK[αMeF]LDSK([AEEA-AEEA-γGlu-C18 diacid])RAQDFVRWLASRGI-OH (N-terminus assumed; SMILES CC[C@H](C)[C@H](NC(=O)CNC(=O)[C@H](CCCNC(=N)N)NC(=O)[C@H](CO)NC(=O)[C@H](C)NC(=O)[C@H](CC(C)C)NC(=O)[C@H](Cc1c[nH]c2ccccc12)NC(=O)[C@H](CCCNC(=N)N)NC(=O)[C@@H](NC(=O)[C@H](Cc1ccccc1)NC(=O)[C@H](CC(=O)O)NC(=O)[C@H](CCC(N)=O)NC(=O)[C@H](C)NC(=O)[C@H](CCCNC(=N)N)NC(=O)[C@H](CCCCNC(=O)COCCOCCNC(=O)COCCOCCNC(=O)CC[C@H](NC(=O)CCCCCCCCCCCCCCCCC(=O)O)C(=O)O)NC(=O)[C@H](CO)NC(=O)[C@H](CC(=O)O)NC(=O)[C@H](CC(C)C)NC(=O)[C@](C)(Cc1ccccc1)NC(=O)[C@H](CCCCN)NC(=O)[C@H](CO)NC(=O)[C@@H](NC(=O)[C@H](CC(=O)O)NC(=O)[C@H](CO)NC(=O)[C@@H](NC(=O)[C@H](Cc1ccccc1)NC(=O)[C@@H](NC(=O)CNC(=O)[C@H](CCC(N)=O)NC(=O)C(C)(C)NC(=O)[C@@H](N)Cc1c[nH]cn1)[C@@H](C)O)[C@@H](C)O)C(C)C)C(C)C)C(=O)O) [Peptide 145],22.6 pM,4590 pM

# From patent US20230357348A1 (AstraZeneca / MedImmune, published 2023)
